The record followed here is patent US20150192588A1 (SAMSUNG ELECTRONICS, published 2015).

The target of this assay is T1, human c-Met/Fc fusion protein (R&D Systems) (human, UniProt P08581 25-932).
T1 construct: Bought reagent, coated on the ELISA plate at 2 ug/mL; also called human c-Met/Fc protein; not shown: Fc part of the bought fusion protein
Nature of the assay: ELISA, human c-Met/Fc coated at 2 ug/mL, hybridoma culture supernatant, anti-mouse IgG-HRP. As for the experimental part: Human c-Met/Fc fusion protein was seeded in an amount of 50 μL (2 μg/mL)/well to microtiter plates and allowed to adhere to the surface of each well. The antibody that remained unbound was removed by washing.
The hybridoma cell culture obtained in Reference Example 1.1.2 was added in an amount of 50 μL to each well of the plates and incubated for 1 hour. The cells remaining unreacted were washed out with a sufficient amount of Tris-buffered saline and Tween 20 (TBST). Goat anti-mouse IgG-horseradish peroxidase (HRP) was added to the plates and incubated for 1 hour at room temperature. The plates were washed with a sufficient amount of TBST, followed by reacting the peroxidase with a substrate (OPD). Absorbance at 450 nm was measured on an ELISA reader.
For orientation: In an ELISA, binding on a coated surface is turned into a signal by an enzyme label.

T1 sequence (P08581 25-932 limits assumed): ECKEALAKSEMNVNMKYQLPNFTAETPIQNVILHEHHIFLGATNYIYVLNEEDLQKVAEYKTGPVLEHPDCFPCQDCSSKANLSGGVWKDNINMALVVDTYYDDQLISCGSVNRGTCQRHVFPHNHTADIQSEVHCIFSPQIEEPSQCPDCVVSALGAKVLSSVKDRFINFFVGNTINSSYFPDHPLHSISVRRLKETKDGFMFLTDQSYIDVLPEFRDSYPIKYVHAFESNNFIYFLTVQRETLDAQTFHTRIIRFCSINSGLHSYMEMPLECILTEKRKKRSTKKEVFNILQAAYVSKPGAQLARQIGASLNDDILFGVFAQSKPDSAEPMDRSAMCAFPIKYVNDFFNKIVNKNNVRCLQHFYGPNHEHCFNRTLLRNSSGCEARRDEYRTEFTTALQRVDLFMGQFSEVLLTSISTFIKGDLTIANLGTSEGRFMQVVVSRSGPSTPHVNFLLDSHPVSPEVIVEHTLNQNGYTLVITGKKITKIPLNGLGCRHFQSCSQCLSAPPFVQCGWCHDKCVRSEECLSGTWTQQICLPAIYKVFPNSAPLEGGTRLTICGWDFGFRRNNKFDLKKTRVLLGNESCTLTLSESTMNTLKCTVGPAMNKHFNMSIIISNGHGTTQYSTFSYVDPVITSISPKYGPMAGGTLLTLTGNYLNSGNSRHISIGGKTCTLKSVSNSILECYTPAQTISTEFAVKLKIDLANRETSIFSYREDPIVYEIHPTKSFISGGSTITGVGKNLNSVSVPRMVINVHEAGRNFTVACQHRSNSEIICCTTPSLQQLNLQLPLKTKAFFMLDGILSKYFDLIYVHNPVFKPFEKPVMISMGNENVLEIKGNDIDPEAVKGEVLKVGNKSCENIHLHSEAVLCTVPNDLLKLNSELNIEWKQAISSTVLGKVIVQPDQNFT

B1: AbF46, mouse monoclonal antibody to c-Met (hybridoma KCLRF-BP-00220) (antibody, V domains shown)
VH: EVKLVESGGGLVQPGGSLRLSCATSGFTFTDYYMSWVRQPPGKALEWLGFIRNKANGYTTEYSASVKGRFTISRDNSQSILYLQMDTLRAEDSATYYCARDNWFAYWGQGTLVTVSA
VL: DILMTQSPSSLTVSAGEKVTMSCKSSQSLLASGNQNNYLAWHQQKPGRSPKMLIIWASTRVSGVPDRFIGSGSGTDFTLTINSVQAEDLAVYYCQQSYSAPLTFGAGTKLELK
notes: In the screening ELISA it stood as hybridoma culture supernatant; The single clone chosen by this screen produces AbF46; also called mouse antibody AbF46
As to B1, the binding result was “binds”.
